Laboratory results reported in publication PMC11366018.

What follows are substances tested against S2A4 (human) (assay: BLI).
Sequence of S2A4 (human) (heavy, as listed by the source, chain 1 of 2): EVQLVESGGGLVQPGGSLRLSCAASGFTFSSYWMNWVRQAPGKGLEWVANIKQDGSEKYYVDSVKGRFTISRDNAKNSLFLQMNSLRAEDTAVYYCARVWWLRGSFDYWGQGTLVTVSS
Sequence of S2A4 (human) (light, as listed by the source, chain 2 of 2): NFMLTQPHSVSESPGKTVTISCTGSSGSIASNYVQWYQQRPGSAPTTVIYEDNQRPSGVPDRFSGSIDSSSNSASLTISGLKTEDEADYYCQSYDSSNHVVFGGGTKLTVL
Substance “Omicron-(L371S+F375S) RBD (from UniProt P0DTC2 319-541) (domain or fragment)” has a Kd of 75.2 nM.
In the case of “Omicron-(L371S+P373S) RBD (from UniProt P0DTC2 319-541) (domain or fragment)”, the Kd is reported as 89.4 nM.
For “Omicron-(P373S+F375S) RBD (from UniProt P0DTC2 319-541) (domain or fragment)”, the Kd was 38.6 nM.
